From patent publication US7091311 (GlaxoSmithKline, dated 2006)
Like-named read-outs stand apart in the source and are kept apart here. Values belong to the binder of their own block, whether it stands above or below them. Bridges are numbered along the chain shown (N, C = ends). Where no end group is shown, it is not given here. The star is where a group is joined. Biotin = O=C1N[C@H]2[C@H](CS[C@H]2CCCCC(=O)*)N1

How the values were obtained:
soluble TPO-R [1] = target: T1, soluble TPO-R (UniProt P40238 26-491); test: equilibrium binding ELISA, MBP-TPO or lacI-peptide tracer
full length human TPO-R [2] = target: T2, full length human TPO-R (human, UniProt P40238 26-635); test: cell-based or functional assay
T2 sequence (looked up): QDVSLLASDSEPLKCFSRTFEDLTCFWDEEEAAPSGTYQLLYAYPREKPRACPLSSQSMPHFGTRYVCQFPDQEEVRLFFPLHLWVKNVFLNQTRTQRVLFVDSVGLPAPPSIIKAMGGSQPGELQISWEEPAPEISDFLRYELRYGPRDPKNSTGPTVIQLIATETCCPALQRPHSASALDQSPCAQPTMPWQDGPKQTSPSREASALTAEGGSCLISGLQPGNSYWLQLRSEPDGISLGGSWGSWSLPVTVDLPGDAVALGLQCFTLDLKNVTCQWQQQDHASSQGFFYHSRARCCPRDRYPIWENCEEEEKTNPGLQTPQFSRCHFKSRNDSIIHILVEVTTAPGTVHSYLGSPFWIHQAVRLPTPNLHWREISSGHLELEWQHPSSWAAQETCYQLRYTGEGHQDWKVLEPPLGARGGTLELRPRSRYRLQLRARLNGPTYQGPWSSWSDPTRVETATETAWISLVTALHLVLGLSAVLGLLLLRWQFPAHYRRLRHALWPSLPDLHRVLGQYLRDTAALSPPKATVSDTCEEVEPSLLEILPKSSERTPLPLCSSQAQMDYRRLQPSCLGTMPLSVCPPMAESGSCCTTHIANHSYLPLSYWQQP

soluble TPO-R [3] = target: T1, soluble TPO-R; test: competition ELISA vs MBP-TPO156
Procedure: (§1) The amount of alkaline phosphatase in each well was then determined using standard methods.
(§2) In this example cyclized compounds were subjected to three assays. First, $IC50$ valves were obtained as described above.

full length human TPO-R [4] = target: T2, full length human TPO-R; test: cell-based or functional assay; remark: listed apart in the source
soluble TPO-R [5] = target: T1, soluble TPO-R; test: competition ELISA vs MBP-TPO156; remark: listed apart in the source
soluble TPO-R [6] = target: T3, soluble TPO-R (UniProt P40238 26-491); test: competition ELISA vs MBP-TPO156
T3 construct: extracellular domain; Immobilized through anti-HPAP antibody Ab179; also called thrombopoietin receptor; c-mpl

full length human TPO-R [7] = target: T2, full length human TPO-R; test: cell-based or functional assay; remark: listed apart in the source
soluble TPO-R [8] = target: T1, soluble TPO-R; test: competition ELISA vs MBP-TPO156; remark: listed apart in the source
soluble TPO-R [9] = target: T3, soluble TPO-R; test: competition ELISA vs MBP-TPO156; remark: listed apart in the source
Procedure: as §1, §2

soluble TPO-R [10] = target: T1, soluble TPO-R; test: equilibrium binding ELISA, MBP-TPO or lacI-peptide tracer; remark: listed apart in the source
full length human TPO-R [11] = target: T2, full length human TPO-R; test: cell-based or functional assay; remark: listed apart in the source
soluble TPO-R [12] = target: T1, soluble TPO-R; test: competition ELISA vs MBP-TPO156; remark: listed apart in the source
Procedure: as §1

full length human TPO-R [13] = target: T2, full length human TPO-R; test: cell-based or functional assay; remark: listed apart in the source
soluble TPO-R [14] = target: T3, soluble TPO-R; test: competition ELISA vs MBP-TPO156; remark: listed apart in the source
Procedure: as §1, §2

IC50 (soluble TPO-R [1]): ≤ 500 nM
Binder: GGCADGPTLREWISFCGGK(Biotin) (cysteine pairing not given here, also called AF 12285) [G G C A D G P T L R E W I S F C G G K (Biotin)]

EC50 cell proliferation (full length human TPO-R [2]): ≤ 500 nM | EC50 microphysiometer (full length human TPO-R [2]): ≤ 200000 nM | IC50 (soluble TPO-R [3]): ≤ 500 nM
Binder: CADGPTLRQWISFC (also: cyclized, mode not given here) [SEQ ID NO:12 cyclized, E - Q]

IC50 (soluble TPO-R [1]): ≤ 500 nM
Binder: LAIEGPTLRQWLHGNGRDT (free synthetic peptide) [L A I E G P T L R Q W L H G N G R D T]

EC50 cell proliferation (full length human TPO-R [4]): ≤ 500 nM | EC50 microphysiometer (full length human TPO-R [4]): ≤ 500 nM | IC50 (soluble TPO-R [5]): ≤ 500 nM
Binder: DGPTLREWISFC (also: further groups not given here, structure printed only as a drawing) [[drawing CHEM-US-00037] (SEQ ID NO:189)(SEQ ID NO:189)]

EC50 cell proliferation (full length human TPO-R [4]): ≤ 500 nM | EC50 microphysiometer (full length human TPO-R [4]): ≤ 500 nM | IC50 (soluble TPO-R [5]): ≤ 500 nM
Binder: SVQCGPTLRQWLAARNHLS (also: further groups not given here, structure printed only as a drawing) [[drawing CHEM-US-00032] (SEQ ID NO:187)(SEQ ID NO:187)]

EC50 cell proliferation (full length human TPO-R [4]): ≤ 500 nM | EC50 microphysiometer (full length human TPO-R [4]): ≤ 500 nM | IC50 (soluble TPO-R [6]): ≤ 500 nM
Binder: H-CADGPTLREWISFC-NH2 (disulfide 1-14 (inferred), also called [drawing CHEM-US-00034]) [cyclized monomer (SEQ ID NO:12)]

EC50 cell proliferation (full length human TPO-R [7]): ≤ 500 nM | IC50 (soluble TPO-R [8]): ≤ 500 nM
Binder: ADGPTLREWISFCG (also: further groups not given here) [SEQ ID NO:173 compound, C-term, Gly addition]

EC50 cell proliferation (full length human TPO-R [4]): ≤ 500 nM | EC50 microphysiometer (full length human TPO-R [4]): ≤ 500 nM | IC50 (soluble TPO-R [5]): ≤ 500 nM
Binder: CADGPTLREWISF (also: further groups not given here, structure printed only as a drawing) [[drawing CHEM-US-00031] (SEQ ID NO:186)(SEQ ID NO:186)]

EC50 cell proliferation (full length human TPO-R [7]): ≤ 500 nM | EC50 microphysiometer (full length human TPO-R [7]): ≤ 200000 nM
Binder: ADGPTLREWISFC-OH (also: further groups not given here) [SEQ ID NO:173 compound, free acid form]

IC50 (soluble TPO-R [1]): ≤ 500 nM
Binder: GNADGPTLRQWLEGRRPKN (free synthetic peptide) [G N A D G P T L R Q W L E G R R P K N]

IC50 (soluble TPO-R [1]): ≤ 500 nM
Binder: TIKGPTLRQWLKSREHTS (free synthetic peptide) [T I K G P T L R Q W L K S R E H T S]

EC50 microphysiometer (full length human TPO-R [2]): ≤ 200000 nM | IC50 (soluble TPO-R [3]): ≤ 200000 nM
Binder: CPTLREWISFC (disulfide 1-11 (inferred); not fully specified) [SEQ ID NO:12 cyclized, ADG - deletion]

EC50 cell proliferation (full length human TPO-R [2]): ~200000 nM | EC50 microphysiometer (full length human TPO-R [2]): ≤ 200000 nM | IC50 (soluble TPO-R [9]): ≤ 500 nM
Binder: CADGPTLREWISAC (also: cyclized, mode not given here) [SEQ ID NO:12 cyclized, F - A]

EC50 cell proliferation (full length human TPO-R [2]): ≤ 500 nM | EC50 microphysiometer (full length human TPO-R [2]): ≤ 500 nM | IC50 (soluble TPO-R [9]): ≤ 500 nM
Binder: CADGPTLREWIAFC (also: cyclized, mode not given here) [SEQ ID NO:12 cyclized, S - A]

IC50 (soluble TPO-R [10]): ≤ 500 nM
Binder: GGCTLREWLHGGFCGG (free synthetic peptide) [G G C T L R E W L H G G F C G G]

EC50 cell proliferation (full length human TPO-R [11]): ≤ 500 nM | IC50 (soluble TPO-R [12]): ≤ 500 nM
Binder: CIEGPTLRQWLAARAC (cysteine pairing not given here; also: further groups not given here, structure printed only as a drawing) [[drawing CHEM-US-00060] (SEQ ID NO:194)]

EC50 cell proliferation (full length human TPO-R [2]): ≤ 200000 nM | EC50 microphysiometer (full length human TPO-R [2]): ≤ 200000 nM | IC50 (soluble TPO-R [3]): ≤ 500 nM
Binder: CAAGPTLREWISFC (also: cyclized, mode not given here) [SEQ ID NO:12 cyclized, D - A]

EC50 cell proliferation (full length human TPO-R [13]): ≤ 500 nM | EC50 microphysiometer (full length human TPO-R [13]): ≤ 500 nM | IC50 (soluble TPO-R [14]): ≤ 500 nM
Binder: ADGPTLREWISFC (also: further groups not given here, structure printed only as a drawing) [[drawing CHEM-US-00004] (SEQ ID NO:173)]

IC50 (soluble TPO-R [1]): ≤ 500 nM
Binder: GGCADGPTLREWISFCGG (free synthetic peptide) [G G C A D G P T L R E W I S F C G G]

EC50 cell proliferation (full length human TPO-R [4]): ≤ 200000 nM | IC50 (soluble TPO-R [5]): ~200000 nM
Binder: MVGPTLRSGC (also: further groups not given here, structure printed only as a drawing) [[drawing CHEM-US-00033] (SEQ ID NO:188)(SEQ ID NO:188)]

EC50 cell proliferation (full length human TPO-R [4]): ≤ 500 nM | EC50 microphysiometer (full length human TPO-R [4]): ≤ 500 nM | EC50 cell proliferation (full length human TPO-R [11]): ≤ 500 nM | EC50 microphysiometer (full length human TPO-R [11]): ≤ 500 nM | IC50 (soluble TPO-R [5]): ≤ 500 nM | IC50 (soluble TPO-R [12]): ≤ 500 nM
Binder: CIEGPTLRQWLAARA (also: further groups not given here, also called [drawing CHEM-US-00062]) [[drawing CHEM-US-00030] (SEQ ID NO:185)(SEQ ID NO:185)]

IC50 (soluble TPO-R [1]): ≤ 500 nM
Binder: SIEGPTLREWLTSRTPHS (free synthetic peptide) [S I E G P T L R E W L T S R T P H S]

EC50 cell proliferation (full length human TPO-R [11]): ≤ 500 nM | IC50 (soluble TPO-R [12]): ≤ 500 nM
Binder: H-IEGPTLRQWLAARA-NH2 [[H]-IEGPTLRQWLAARA-[NH2]]
